In publication PMC2698047:
Where two headings read alike, the source gives them in different places.

Tests used:
Test in all cases: competition
[1] = target: T1, TP0262 (TpCRP, CRP homolog) (Treponema pallidum subsp. pallidum, UniProt O83286 1-224)
T1 sequence: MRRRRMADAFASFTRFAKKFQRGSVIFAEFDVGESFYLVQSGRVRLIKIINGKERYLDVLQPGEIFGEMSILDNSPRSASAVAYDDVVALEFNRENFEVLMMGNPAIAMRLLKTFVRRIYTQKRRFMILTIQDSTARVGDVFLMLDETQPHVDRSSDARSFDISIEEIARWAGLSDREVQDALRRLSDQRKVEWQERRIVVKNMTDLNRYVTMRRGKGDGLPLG

[2] = target: T1, TP0262 (TpCRP, CRP homolog); remark: listed apart in the source
E. coli CRP = E. coli CRP (Escherichia coli K12 MG1655, UniProt P0ACJ8 1-210)
Sequence of E. coli CRP (P0ACJ8 whole entry): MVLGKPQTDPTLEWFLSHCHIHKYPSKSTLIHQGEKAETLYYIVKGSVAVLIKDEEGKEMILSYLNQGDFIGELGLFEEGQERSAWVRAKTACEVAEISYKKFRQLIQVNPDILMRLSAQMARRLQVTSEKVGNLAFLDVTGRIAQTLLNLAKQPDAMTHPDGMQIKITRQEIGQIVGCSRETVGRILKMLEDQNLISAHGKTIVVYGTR

[3] = target: T1, TP0262 (TpCRP, CRP homolog); remark: listed apart in the source

B1: tprE competitor oligo (dsDNA)
DNA 1: TGCGTGTGTGTGTGGGCTCGTGCTG
DNA 2: CAGCACGAGCCCACACACACACGCA
B1: binds [1].

B2: tprJ competitor oligo (dsDNA)
DNA 1: GTTGTCAGTGCACGAGGAGGAG
DNA 2: CTCCTCCTCGTGCACTGACAAC
B2: binds [2].

B3: lac competitor oligo (E. coli CRP site) (dsDNA)
DNA 1: AAATGTGATCTAGATCACATTT
DNA 2: AAATGTGATCTAGATCACATTT
B3: binds (E. coli CRP).

B4: tprG competitor oligo (dsDNA)
DNA 1: GTCAGTGCTAGCAGTCACATAC
DNA 2: GTATGTGACTGCTAGCACTGAC
B4: binds [3].
